Data published in patent publication US20220154221, “SITE SPECIFIC RECOMBINASE INTEGRASE VARIANTS AND USES THEREOF IN GENE EDITING IN EUKARYOTIC CELLS” (RAMOT AT TEL-AVIV UNIVERSITY LTD., published 2022).

Assays:
HK022 Int D278K = target: T1, HK022 Int D278K (Bacteriophage HK022, UniProt P16407 SEQ:1-357, D278K); experiment: cell_activity; trans attB x attP, HEK293T; details: chain copies: 4
T1 sequence: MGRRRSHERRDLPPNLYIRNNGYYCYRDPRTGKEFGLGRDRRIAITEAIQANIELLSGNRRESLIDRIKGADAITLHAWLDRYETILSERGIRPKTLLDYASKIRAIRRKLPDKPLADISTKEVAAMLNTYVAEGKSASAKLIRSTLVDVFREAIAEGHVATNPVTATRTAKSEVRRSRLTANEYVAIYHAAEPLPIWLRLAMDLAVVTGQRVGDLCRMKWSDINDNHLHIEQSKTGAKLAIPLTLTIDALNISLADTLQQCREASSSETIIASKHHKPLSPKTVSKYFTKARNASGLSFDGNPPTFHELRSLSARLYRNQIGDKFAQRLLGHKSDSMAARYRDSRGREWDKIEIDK
Protocol: (§1) To examine the activity of these Int variants, an analytic assay was performed of a transient trans integrative recombination reaction using the wild type attB and attP sites in human HEK293T cells in which each att site is located on a different substrate plasmid (FIG. 2B). The first substrate (pMK221) carries the attP site downstream to the cytomegalovirus promoter (CMV). The second plasmid (pMK223) carries the attB downstream to the open reading frame (ORF) of the green fluorescent protein (GFP) and upstream to a transcription terminator (Stop).
(§2) A productive attB×attP reaction forms a dimer plasmid encoding CMV-promoted GFP expression (FIG. 2B). HEK293T cells were co-transfected with these two substrate plasmids, with or without an Int-expressing plasmid (the oInt pNA979, or one of its Int mutant derivatives). 48 hours post-transfection GFP expressing cells were analyzed by fluorescence-activated cell sorting (FACS).

[1] = target: T2, HK022 Int E174K+I43F+R319G (Bacteriophage HK022, UniProt P16407 SEQ:1-357, I43F,E174K,R319G); experiment: cell_activity; trans attB x attP, HEK293T; details: chain copies: 4
T2 sequence: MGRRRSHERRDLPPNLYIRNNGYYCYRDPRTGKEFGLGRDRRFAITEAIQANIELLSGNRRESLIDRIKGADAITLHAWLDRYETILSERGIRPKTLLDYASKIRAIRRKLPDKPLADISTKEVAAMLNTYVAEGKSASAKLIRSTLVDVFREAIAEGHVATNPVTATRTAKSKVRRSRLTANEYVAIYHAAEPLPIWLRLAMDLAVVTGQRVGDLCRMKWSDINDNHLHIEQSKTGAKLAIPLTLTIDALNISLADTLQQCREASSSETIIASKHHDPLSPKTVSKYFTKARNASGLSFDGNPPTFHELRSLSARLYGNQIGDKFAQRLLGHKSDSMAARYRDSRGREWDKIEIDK
Protocol: as §1, §2

HK022 Int E174K = target: T3, HK022 Int E174K (Bacteriophage HK022, UniProt P16407 SEQ:1-357, E174K); experiment: cell_activity; trans attB x attP, HEK293T (Example 8 quotes 147%); details: chain copies: 4
T3 sequence: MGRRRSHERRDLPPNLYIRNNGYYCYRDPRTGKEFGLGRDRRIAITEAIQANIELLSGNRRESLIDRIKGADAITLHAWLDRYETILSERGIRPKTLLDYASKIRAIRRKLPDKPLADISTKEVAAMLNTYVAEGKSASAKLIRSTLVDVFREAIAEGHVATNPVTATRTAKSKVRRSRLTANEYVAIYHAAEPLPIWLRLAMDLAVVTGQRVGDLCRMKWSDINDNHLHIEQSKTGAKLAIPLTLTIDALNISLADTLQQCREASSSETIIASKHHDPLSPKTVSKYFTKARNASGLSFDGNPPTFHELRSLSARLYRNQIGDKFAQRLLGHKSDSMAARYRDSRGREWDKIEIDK
Protocol: as §1, §2

[2] = target: T4, HK022 integrase (oInt / wild type) (Bacteriophage HK022, UniProt P16407 SEQ:1-357); experiment: cell_activity; trans attB x attP integration, HEK293T, reference; details: tags: human codon-optimised (oInt) in human cells; native gene in E. coli; chain copies: 4
T4 sequence: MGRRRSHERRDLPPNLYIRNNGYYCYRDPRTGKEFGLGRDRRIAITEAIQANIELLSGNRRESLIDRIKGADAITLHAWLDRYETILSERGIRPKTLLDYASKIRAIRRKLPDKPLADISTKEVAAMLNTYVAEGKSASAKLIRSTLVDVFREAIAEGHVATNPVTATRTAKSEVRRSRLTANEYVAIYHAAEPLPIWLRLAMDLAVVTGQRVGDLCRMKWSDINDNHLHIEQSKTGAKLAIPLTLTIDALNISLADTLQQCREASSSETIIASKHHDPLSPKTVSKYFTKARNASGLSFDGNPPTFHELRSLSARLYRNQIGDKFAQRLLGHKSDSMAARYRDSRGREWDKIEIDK
Protocol: as §1, §2

HK022 Int E174K+D278K = target: T5, HK022 Int E174K+D278K (Bacteriophage HK022, UniProt P16407 SEQ:1-357, E174K,D278K); experiment: cell_activity; genomic RMCE at DMD2/DMD3, HEK293; details: chain copies: 4
T5 sequence: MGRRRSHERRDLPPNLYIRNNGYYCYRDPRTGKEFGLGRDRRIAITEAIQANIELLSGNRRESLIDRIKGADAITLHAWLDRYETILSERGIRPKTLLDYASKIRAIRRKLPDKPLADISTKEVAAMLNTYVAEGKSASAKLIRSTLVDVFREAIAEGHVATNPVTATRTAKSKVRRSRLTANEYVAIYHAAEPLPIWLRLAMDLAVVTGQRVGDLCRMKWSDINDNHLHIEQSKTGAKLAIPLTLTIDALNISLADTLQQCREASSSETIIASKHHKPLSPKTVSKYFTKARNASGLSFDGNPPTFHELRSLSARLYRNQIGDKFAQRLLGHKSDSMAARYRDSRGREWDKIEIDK
Protocol: (§3) Plasmid transformations were performed by electroporation (Sambrook, J., et al (1989) Cold Spring Harbor, N.Y.). Plasmids and oligomers are listed in Tables 1,3,5 and 2,4,6 respectively. Human embryonic kidney cells HEK293, 293T, and 293 Flp-In were cultured in Dulbecco's modified Eagle's medium (DMEM). For transient transfection 293T cells (˜6×10⁵) were plated in a 6 well plate and 24 h later treated with 3 μg of the proper plasmid DNA using PureFection Transfection Reagent (System Biosciences, Mountain View, Calif., USA). For the model chromosomal assay transfection, 293 Flp-In cells (˜6×10⁵) were plated in a 6 well plate and 24 h later treated with 5.5 μg of the proper plasmid DNA using Mirus Transfection Reagent (Mirus, Wis., USA). For the CTNS and DMD chromosomal assay transfection, HEK293 cells (˜6×10⁵) were plated in a 6 well plate and 24 h later treated with 3 μg of the proper plasmid DNA using PureFection Transfection Reagent.
(§4) In the DMD model, DMD2 and DMD3 “attB” sites were chosen which are 23 Kb apart located in introns 43 and 44 respectively that flank exon 44 (FIG. 12B). The relevant deletion mutation located in exon 44 is described (GM23715, Coriell institute). A GFP promoter trap whose incoming plasmid carried a splicing acceptor (SA), a ribosomal skipping site (2A) and the ORF of EGFP with a polyA sequence (FIG. 12A) was used. All are flanked with the two relevant “attP”s 1.4 Kb apart. […] The correct sequence of all PCR products was confirmed by NGS.

[3] = target: T2, HK022 Int E174K+I43F+R319G; experiment: cell_activity; genomic RMCE at DMD2/DMD3, HEK293; details: chain copies: 4
Protocol: as §3, §4

Row | Binder | integration activity (HK022 Int D278K) | integration activity [1] | recombination activity (GFP+ cells, relative to oInt) (HK022 Int E174K) | integrative recombination activity [2] | activity (HK022 Int E174K+D278K) [% cells] | activity [3] [% cells]
1 | wild-type attB (dsDNA) DNA 1: GCACTTTAGGTGAAAAAGGTT DNA 2: AACCTTTTTCACCTAAAGTGC | 1.48 fold of oInt | 2.3 fold of oInt | 1.54 fold of oInt | 1 fold of oInt | – | –
2 | DMD2 attB (dsDNA) DNA 1: TTGCTTAATGGAGAAAAGGTA DNA 2: TACCTTTTCTCCATTAAGCAA | – | – | – | – | 0.4 | 0.4
3 | DMD3 attB (dsDNA) DNA 1: GTGCTTTAAAAAGAAAAGGGG DNA 2: CCCCTTTTCTTTTTAAAGCAC | – | – | – | – | 0.4 | 0.4
